In patent US20260285954:

Target: Aβ oligomers (Aβ42) (human), P05067
Experiment: SPR
Settings: remark: other sources report otherwise

Chain of Aβ oligomers (Aβ42) (human), P05067 (P05067 672-713): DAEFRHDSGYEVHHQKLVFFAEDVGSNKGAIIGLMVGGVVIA

B1: 3F (protein)
chain: MAEVQLLESGGGLVQPGGSLRLSCAASGFTFSSYAMSWVRQAPGKGLEWVSGISNLGLTTGYADSVKGRFTISRDNSKNTLYLQMNSLRAEDTAVYYCAKTTSRFDYWGQGTLVTVSSGGGGSGGGGSGGGGSTDIQMTQSPSSLSASVGDRVTITCRASQSISSYLNWYQQKPGKAPKLLIYKASYLQSGVPSRFSGSGSGTDFTLTISSLQPEDFATYYCQNSAVRPVTFGQGTKVEIKR
Kd: 847 pM
